19 molecules from patent US20140044730A1 (Regeneron, published 2014) can be followed below.

Test [1] addresses T1, human PCSK9 with a C-terminal myc-myc-hexahistidine tag (human, UniProt Q8NBP7 31-692, limits assumed).
T1 construct: also called hPCSK9-mmH; hPCSK9-mmh; not shown: C-terminal myc-myc-hexahistidine tag
Nature of the test: SPR 25C pH 7.2, mAb captured.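 Note: biacore SPR, antibodies captured on anti-human Fc CM4 chip with PCSK9 flowed as analyte, rate constants from a one-to-one kinetic fit, KD and half-life derived from them.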

Test [2] addresses T1, human PCSK9 with a C-terminal …. As to the kind of experiment: SPR 25C pH 5.75, mAb captured.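 Note: biacore surface with anti-human Fc antibody capturing the antibodies, PCSK9 as analyte, one-to-one kinetic fit, KD as kd over ka, half-life derived from kd.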
The target is the same in test [3]. Nature of the test: SPR 25C, mAb captured.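 Note: biacore CM4 surface bearing anti-human Fc antibody capturing the mAbs, PCSK9 binding and release rates fitted with a one-to-one model, KD and half-life derived from those rates.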
Protocol: A Biacore CM4 sensor chip was derivatized with a monoclonal mouse anti-human Fc antibody to capture human antibodies. The histidine substitution variant anti-PCSK9 antibodies were captured onto the anti-human Fc sensor surface from culture medium after transient expression in Chinese hamster ovary (CHO) cells. […] Kinetic association (kₐ) and dissociation (kd) rate constants were determined by processing and fitting the data to a 1:1 binding model using Scrubber 2.0 curve fitting software. Binding dissociation equilibrium constants (KD) and dissociative half-lives (t_{1/2}) were calculated from the kinetic rate constants as: KD (M)=kd/kₐ; and t_{1/2} (min)=(In2/(60*kd).

B1: VH-S30H (antibody, V domains shown)
VH: EMQLVESGGGLVQPGGSLRLSCAASGFTFHSHWMKWVRQAPGKGLEWVANINQDGSEKYYVDSVKGRFTISRDNAKNSLFLQMNSLRAEDTAVYYCARDIVLMVYDMDYYYYGMDVWGQGTTVTVSS
VL: not shown
notes: His variant of 300N
In test [1], B1 registered a Kd of 1.06 nM and a t½ of 41 min. Besides, in test [2], binding was put at a Kd of 1.09 nM and the t½ was 13 min. In test [3], the “KD ratio pH 5.75/pH 7.2” value stood at 1.03 and the “t½ ratio pH 5.75/pH 7.2” value was determined as 0.33.

B2: VK-G34H (antibody, V domains shown)
VH: EMQLVESGGGLVQPGGSLRLSCAASGFTFSSHWMKWVRQAPGKGLEWVANINQDGSEKYYVDSVKGRFTISRDNAKNSLFLQMNSLRAEDTAVYYCARDIVLMVYDMDYYYYGMDVWGQGTTVTVSS
VL: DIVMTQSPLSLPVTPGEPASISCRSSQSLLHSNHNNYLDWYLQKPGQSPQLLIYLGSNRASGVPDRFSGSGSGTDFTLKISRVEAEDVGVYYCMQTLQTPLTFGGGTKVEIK
notes: His variant of 300N
In test [1], B2 displayed a Kd of 18 nM and a t½ of 1 min. Also, in test [2], the equilibrium dissociation constant (Kd) came out at 2370 nM and the t½ was 0.3 min. Moreover, in test [3], the “KD ratio pH 5.75/pH 7.2” value worked out at 131 and the “t½ ratio pH 5.75/pH 7.2” value was found to be 0.38.

B3: VK-M94H (antibody, V domains shown)
VH: EMQLVESGGGLVQPGGSLRLSCAASGFTFSSHWMKWVRQAPGKGLEWVANINQDGSEKYYVDSVKGRFTISRDNAKNSLFLQMNSLRAEDTAVYYCARDIVLMVYDMDYYYYGMDVWGQGTTVTVSS
VL: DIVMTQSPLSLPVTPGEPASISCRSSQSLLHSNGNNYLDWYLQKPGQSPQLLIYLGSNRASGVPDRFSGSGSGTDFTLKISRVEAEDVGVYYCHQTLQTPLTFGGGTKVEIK
notes: His variant of 300N
Consider B3, for which, in test [1], binding was put at a Kd of 3.53 nM and the t½ stood at 29 min. In test [2], this molecule showed a Kd of 11.3 nM and a t½ of 7 min. In addition, in test [3], the “KD ratio pH 5.75/pH 7.2” value was found to be 3.21 and the “t½ ratio pH 5.75/pH 7.2” value was determined as 0.23.

B4: VH-S56H (antibody, V domains shown)
VH: EMQLVESGGGLVQPGGSLRLSCAASGFTFSSHWMKWVRQAPGKGLEWVANINQDGHEKYYVDSVKGRFTISRDNAKNSLFLQMNSLRAEDTAVYYCARDIVLMVYDMDYYYYGMDVWGQGTTVTVSS
VL: not shown
notes: His variant of 300N
In test [1], B4 registered a Kd of 1.02 nM and a t½ of 40 min. Moreover, in test [2], binding was characterised by a dissociation constant (Kd) of 1.13 nM and the t½ is 9 min. Besides, in test [3], the “KD ratio pH 5.75/pH 7.2” value was found to be 1.11 and the “t½ ratio pH 5.75/pH 7.2” value worked out at 0.23.

B5: VH-Y109H (antibody, V domains shown)
VH: EMQLVESGGGLVQPGGSLRLSCAASGFTFSSHWMKWVRQAPGKGLEWVANINQDGSEKYYVDSVKGRFTISRDNAKNSLFLQMNSLRAEDTAVYYCARDIVLMVYDMDHYYYGMDVWGQGTTVTVSS
VL: not shown
notes: His variant of 300N
In test [1], B5 had a Kd of 242 nM and a t½ of 0 min. In test [2], this molecule yielded a Kd of 247 nM and a t½ of 1 min. Moreover, in test [3], the “KD ratio pH 5.75/pH 7.2” value was 1.02 and the “t½ ratio pH 5.75/pH 7.2” value amounted to 1.37.

B6: VH-Y110H (antibody, V domains shown)
VH: EMQLVESGGGLVQPGGSLRLSCAASGFTFSSHWMKWVRQAPGKGLEWVANINQDGSEKYYVDSVKGRFTISRDNAKNSLFLQMNSLRAEDTAVYYCARDIVLMVYDMDYHYYGMDVWGQGTTVTVSS
VL: not shown
notes: His variant of 300N
As to B6, in test [1], the Kd is 194 nM and the t½ was 1 min. In test [2], this molecule came in with a Kd of 3.37 nM and a t½ of 7 min. Besides, in test [3], the “KD ratio pH 5.75/pH 7.2” value turned out to be 0.02 and the “t½ ratio pH 5.75/pH 7.2” value was 9.97.

B7: VH-T28H (antibody, V domains shown)
VH: EMQLVESGGGLVQPGGSLRLSCAASGFHFSSHWMKWVRQAPGKGLEWVANINQDGSEKYYVDSVKGRFTISRDNAKNSLFLQMNSLRAEDTAVYYCARDIVLMVYDMDYYYYGMDVWGQGTTVTVSS
VL: not shown
notes: His variant of 300N
With B7, in test [1], the Kd worked out at 2.96 nM and the t½ was 20 min. Moreover, in test [2], the dissociation constant (Kd) was 1.45 nM and the t½ stood at 16 min. For the same molecule, in test [3], the “KD ratio pH 5.75/pH 7.2” value was found to be 0.49 and the “t½ ratio pH 5.75/pH 7.2” value turned out to be 0.8.

B8: VH-Y105H (antibody, V domains shown)
VH: EMQLVESGGGLVQPGGSLRLSCAASGFTFSSHWMKWVRQAPGKGLEWVANINQDGSEKYYVDSVKGRFTISRDNAKNSLFLQMNSLRAEDTAVYYCARDIVLMVHDMDYYYYGMDVWGQGTTVTVSS
VL: not shown
notes: His variant of 300N
On to B8, for which, in test [1], the Kd came out at 292 nM and the t½ stood at 1 min. In test [2], this molecule displayed a Kd of 643 nM and a t½ of 0 min. Besides, in test [3], the “KD ratio pH 5.75/pH 7.2” value came out at 2.2 and the “t½ ratio pH 5.75/pH 7.2” value worked out at 0.83.

B9: VK-L29H (antibody, V domains shown)
VH: EMQLVESGGGLVQPGGSLRLSCAASGFTFSSHWMKWVRQAPGKGLEWVANINQDGSEKYYVDSVKGRFTISRDNAKNSLFLQMNSLRAEDTAVYYCARDIVLMVYDMDYYYYGMDVWGQGTTVTVSS
VL: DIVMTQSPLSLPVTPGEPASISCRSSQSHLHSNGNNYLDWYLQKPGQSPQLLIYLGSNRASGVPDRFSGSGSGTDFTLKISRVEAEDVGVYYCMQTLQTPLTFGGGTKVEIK
notes: His variant of 300N
B9: in test [1], the Kd was determined as 12.9 nM and the t½ was 7 min. In test [2], this molecule returned a Kd of 40.2 nM and a t½ of 1 min. Also, in test [3], the “KD ratio pH 5.75/pH 7.2” value came to 3.12 and the “t½ ratio pH 5.75/pH 7.2” value was found to be 0.16.

B10: VH-V116H (antibody, V domains shown)
VH: EMQLVESGGGLVQPGGSLRLSCAASGFTFSSHWMKWVRQAPGKGLEWVANINQDGSEKYYVDSVKGRFTISRDNAKNSLFLQMNSLRAEDTAVYYCARDIVLMVYDMDYYYYGMDHWGQGTTVTVSS
VL: not shown
notes: His variant of 300N
In test [1], B10 came in with an equilibrium dissociation constant (Kd) of 2.62 nM and a t½ of 43 min. Further, in test [2], the affinity, expressed as Kd, was 6.11 nM and the t½ is 11 min. Further, in test [3], the “KD ratio pH 5.75/pH 7.2” value came to 2.33 and the “t½ ratio pH 5.75/pH 7.2” value came to 0.26.

B11: VH-S31H (antibody, V domains shown)
VH: EMQLVESGGGLVQPGGSLRLSCAASGFTFSHHWMKWVRQAPGKGLEWVANINQDGSEKYYVDSVKGRFTISRDNAKNSLFLQMNSLRAEDTAVYYCARDIVLMVYDMDYYYYGMDVWGQGTTVTVSS
VL: not shown
notes: His variant of 300N
On to B11, for which, in test [1], binding was characterised by a dissociation constant (Kd) of 1.01 nM and the t½ was found to be 48 min. Moreover, in test [2], the Kd is 1 nM and the t½ was determined as 16 min. For the same molecule, in test [3], the “KD ratio pH 5.75/pH 7.2” value was 1 and the “t½ ratio pH 5.75/pH 7.2” value came to 0.34.

B12: VK-N35H (antibody, V domains shown)
VH: EMQLVESGGGLVQPGGSLRLSCAASGFTFSSHWMKWVRQAPGKGLEWVANINQDGSEKYYVDSVKGRFTISRDNAKNSLFLQMNSLRAEDTAVYYCARDIVLMVYDMDYYYYGMDVWGQGTTVTVSS
VL: not shown
notes: His variant of 300N
As to B12, in test [1], the Kd came to 1.06 nM and the t½ came out at 48 min. In test [2], this molecule yielded a Kd of 2.09 nM and a t½ of 14 min. Besides, in test [3], the “KD ratio pH 5.75/pH 7.2” value worked out at 1.98 and the “t½ ratio pH 5.75/pH 7.2” value was found to be 0.29.

B13: VK-N33H (antibody, V domains shown)
VH: EMQLVESGGGLVQPGGSLRLSCAASGFTFSSHWMKWVRQAPGKGLEWVANINQDGSEKYYVDSVKGRFTISRDNAKNSLFLQMNSLRAEDTAVYYCARDIVLMVYDMDYYYYGMDVWGQGTTVTVSS
VL: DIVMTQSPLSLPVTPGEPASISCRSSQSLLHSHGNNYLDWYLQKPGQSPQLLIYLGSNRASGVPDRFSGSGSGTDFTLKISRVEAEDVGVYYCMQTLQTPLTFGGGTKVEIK
notes: His variant of 300N
Consider B13, for which, in test [1], the Kd came to 9.69 nM and the t½ came out at 2 min. In test [2], this molecule returned a Kd of 369 nM and a t½ of 0.3 min. Also, in test [3], the “KD ratio pH 5.75/pH 7.2” value was found to be 38.1 and the “t½ ratio pH 5.75/pH 7.2” value turned out to be 0.12.

B14: VK-L97H (antibody, V domains shown)
VH: EMQLVESGGGLVQPGGSLRLSCAASGFTFSSHWMKWVRQAPGKGLEWVANINQDGSEKYYVDSVKGRFTISRDNAKNSLFLQMNSLRAEDTAVYYCARDIVLMVYDMDYYYYGMDVWGQGTTVTVSS
VL: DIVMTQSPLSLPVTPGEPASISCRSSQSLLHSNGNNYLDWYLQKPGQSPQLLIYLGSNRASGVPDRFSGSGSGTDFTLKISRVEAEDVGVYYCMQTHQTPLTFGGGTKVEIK
notes: His variant of 300N
In the case of B14, in test [1], binding was characterised by a dissociation constant (Kd) of 6.61 nM and the t½ was found to be 45 min. In test [2], the dissociation constant (Kd) was determined as 12.8 nM and the t½ amounted to 8 min. For the same molecule, in test [3], the “KD ratio pH 5.75/pH 7.2” value is 1.94 and the “t½ ratio pH 5.75/pH 7.2” value was 0.18.

B15: VK-G56H (antibody, V domains shown)
VH: EMQLVESGGGLVQPGGSLRLSCAASGFTFSSHWMKWVRQAPGKGLEWVANINQDGSEKYYVDSVKGRFTISRDNAKNSLFLQMNSLRAEDTAVYYCARDIVLMVYDMDYYYYGMDVWGQGTTVTVSS
VL: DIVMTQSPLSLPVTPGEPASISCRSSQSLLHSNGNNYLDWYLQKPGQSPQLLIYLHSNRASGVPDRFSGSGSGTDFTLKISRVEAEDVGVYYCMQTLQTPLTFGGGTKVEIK
notes: His variant of 300N
Take B15: in test [1], the dissociation constant (Kd) was found to be 1.11 nM and the t½ amounted to 36 min. Besides, in test [2], the affinity, expressed as Kd, was 1.83 nM and the t½ came out at 9 min. In test [3], the “KD ratio pH 5.75/pH 7.2” value worked out at 1.65 and the “t½ ratio pH 5.75/pH 7.2” value was determined as 0.24.

B16: VK-L55H (antibody, V domains shown)
VH: EMQLVESGGGLVQPGGSLRLSCAASGFTFSSHWMKWVRQAPGKGLEWVANINQDGSEKYYVDSVKGRFTISRDNAKNSLFLQMNSLRAEDTAVYYCARDIVLMVYDMDYYYYGMDVWGQGTTVTVSS
VL: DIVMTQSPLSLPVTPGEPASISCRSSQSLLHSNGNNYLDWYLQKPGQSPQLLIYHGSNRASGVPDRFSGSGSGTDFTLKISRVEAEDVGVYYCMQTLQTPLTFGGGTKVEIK
notes: His variant of 300N
Regarding B16, in test [1], the equilibrium dissociation constant (Kd) is 0.906 nM and the t½ is 66 min. Further, in test [2], the affinity, expressed as Kd, was 2.68 nM and the t½ amounted to 19 min. Moreover, in test [3], the “KD ratio pH 5.75/pH 7.2” value worked out at 2.95 and the “t½ ratio pH 5.75/pH 7.2” value was 0.29.

B17: VK-L101H (antibody, V domains shown)
VH: EMQLVESGGGLVQPGGSLRLSCAASGFTFSSHWMKWVRQAPGKGLEWVANINQDGSEKYYVDSVKGRFTISRDNAKNSLFLQMNSLRAEDTAVYYCARDIVLMVYDMDYYYYGMDVWGQGTTVTVSS
VL: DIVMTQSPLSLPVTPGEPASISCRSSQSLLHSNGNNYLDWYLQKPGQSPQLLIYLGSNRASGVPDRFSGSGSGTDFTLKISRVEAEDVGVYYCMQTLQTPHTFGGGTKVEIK
notes: His variant of 300N
In test [1], B17 returned a Kd of 1.8 nM and a t½ of 33 min. In addition, in test [2], binding was put at a Kd of 3.3 nM and the t½ turned out to be 8 min. Further, in test [3], the “KD ratio pH 5.75/pH 7.2” value stood at 1.84 and the “t½ ratio pH 5.75/pH 7.2” value came out at 0.25.

B18: VH-W33H (antibody, V domains shown)
VH: EMQLVESGGGLVQPGGSLRLSCAASGFTFSSHHMKWVRQAPGKGLEWVANINQDGSEKYYVDSVKGRFTISRDNAKNSLFLQMNSLRAEDTAVYYCARDIVLMVYDMDYYYYGMDVWGQGTTVTVSS
VL: not shown
notes: His variant of 300N
Turning to B18, in test [1], the dissociation constant Kd was 15.4 nM and the t½ amounted to 4 min. Also, in test [2], the Kd was found to be 21.5 nM and the t½ is 0.1 min. For the same molecule, in test [3], the “KD ratio pH 5.75/pH 7.2” value was determined as 1.39 and the “t½ ratio pH 5.75/pH 7.2” value was 0.03.

B19: VH-Y111H (antibody, V domains shown)
VH: EMQLVESGGGLVQPGGSLRLSCAASGFTFSSHWMKWVRQAPGKGLEWVANINQDGSEKYYVDSVKGRFTISRDNAKNSLFLQMNSLRAEDTAVYYCARDIVLMVYDMDYYHYGMDVWGQGTTVTVSS
VL: not shown
notes: His variant of 300N
For B19, in test [1], the Kd amounted to 19.4 nM and the t½ was found to be 3 min. In test [2], this molecule had a dissociation constant Kd of 7.01 nM and a t½ of 6 min. Moreover, in test [3], the “KD ratio pH 5.75/pH 7.2” value came out at 0.36 and the “t½ ratio pH 5.75/pH 7.2” value turned out to be 2.29.

A word on the Kd: it is the free concentration of one partner at which half of the binding sites on the other are occupied at equilibrium, for simple one-to-one binding. Lower therefore signals tighter binding. What is called t½ is the time in which the quantity being followed falls by half. Read a high t½ as slow decline.
